For test [1], the target named is PTHR1_(YFPΔECD). Description: flow cytometry on cells; dose response of staining with VHH-Alexafluor647 (median fluorescent intensity); cells in PBS, 1 h on ice; curves without plateau constrained to the plateau seen with other VHHs. (In general: Flow cytometry measures light scatter and fluorescence of single cells or particles in a stream.)
For test [2], the target named is each of the PTHR1 receptor constructs that retained the ECD. Described as above.

The values below come from PMC7190724, “Improved GPCR ligands from nanobody tethering” (Nature Communications, 2020).

B1: VHHGFP (VHH)
VHH: QVQLQESGGALVQPGGSLRLSCAASGFPVNRYSMRWYRQAPGKEREWVAGMSSAGDRSSYEDSVKGRFTISRDDARNTVYLQMNSLKPEDTAVYYCNVNVGFEYWGQGTQVTVSS
In test [1], B1 yielded a half-maximal effective concentration (EC50) below 10 nM.

B2: VHH_(PTHR) (VHH)
VHH: EVQLVESGGGLVQAGGSLRLSCAASGNIFANNIMGWYRQPPGKEREFVAHVSHDGDSMYAVSVKGRFAISRKDATNLYLQMNSLKPEDTAIYFCRLLNIPTQGRMEGFWGQGTQVTVSS
With B2, the concentration giving a half-maximal response (EC50) in test [2] lay in the range of 100 to 200 nM.

What is called EC50 is the concentration that produces a half-maximal response.
